In the supplement of paper PMC10126150:
± gives the standard deviation of the averaged measurements.

system: ATP; assay: switch fluorescence ratio, 500 uM ATP over buffer (Cy3 cluster intensity, sum of 5 cycles each) (fold (ratio)); higher = stronger signal-on switching upon ATP binding; sequences stand for … in TCGTCGGCAGCGTCAGATGTGTATAAGAGACAGTTTTTTTTTTTTTTTTTTTTTTTTT…TC; conditions: aptamer strand: ATP DNA aptamer (quencher-CACCTGGGGGAGTATTGCGGAGGAAGG + anchor), 100 nM annealed; ATP concentration: 500 uM
Outline: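 The fluorescence ratio divides summed target-cycle Cy3 intensity by summed buffer-cycle Cy3 intensity for each cluster and is averaged per switch-domain sequence. Cy3-labelled switching-strand clusters on a modified Illumina MiSeq flow-cell were annealed to 100 nM quencher-labelled ATP aptamer, then imaged in selection buffer and again after 15 min with 500 uM ATP at 22 °C. Five such cycles were run, with NaOH stripping and re-annealing between them, and clusters outside 100-1000 RFU were excluded.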
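Note: ATP exposure 15 min at 22 °C before imaging.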

Sequence | switch fluorescence ratio
TTTAATTTA | 1.01 ± 0.012
TTTACAGATT | 0.982 ± 0.023
TTTACAGCAT | 1.06 ± 0.14
TTTACAGTC | 1.01 ± 0.037
TTTACAGTGG | 1.05 ± 0.057
TTTACATTAT | 0.981 ± 0.058
TTTACATTGG | 1.01 ± 0.044
TTTACCATTT | 1.024 ± 0.0018
TTTACGAAAT | 1.08 ± 0.12
TTTACGAGGG | 0.977 ± 0.015
TTTACGATTA | 1.14 ± 0.067
TTTACGGTGC | 1.25 ± 0.15
TTTACGTAGG | 1 ± 0.024
TTTACGTCCA | 1.1 ± 0.047
TTTACGTGGA | 1.02 ± 0.028
TTTACTATTG | 1.03 ± 0.03
TTTACTCGGC | 1.08 ± 0.16
TTTACTGGGG | 1.01 ± 0.023
TTTACTTAGC | 1.04 ± 0.026
TTTACTTCTA | 1.05 ± 0.017
TTTAGAAAGT | 1.028 ± 0.0052
TTTAGAACTC | 1.19 ± 0.3
TTTAGAAGGT | 0.995 ± 0.026
TTTAGAGAGT | 1.01 ± 0.018
TTTAGAGGGA | 1.02 ± 0.019

Sequence | switch fluorescence ratio
TTTAGAGGGT | 0.988 ± 0.013
TTTAGATCAG | 1.03 ± 0.013
TTTAGATCGG | 1.01 ± 0.046
TTTAGATGAG | 0.986 ± 0.053
TTTAGATGGA | 0.975 ± 0.021
TTTAGATTGG | 0.9945 ± 0.0086
TTTAGCAATG | 1.64 ± 0.34
TTTAGCAGAG | 1.16 ± 0.28
TTTAGCCTTT | 1.06 ± 0.11
TTTAGCTGT | 1.1 ± 0.17
TTTAGGCCTC | 1.01 ± 0.014
TTTAGGCGGC | 1.03 ± 0.023
TTTAGGCGGG | 1.05 ± 0.044
TTTAGGGA | 0.973 ± 0.033
TTTAGGGATG | 0.989 ± 0.0088
TTTAGGGGAA | 1.02 ± 0.003
TTTAGGTAGA | 1.02 ± 0.014
TTTAGGTATT | 0.9598 ± 0.0042
TTTAGGTTCG | 0.972 ± 0.028
TTTAGGTTGA | 0.9957 ± 0.0012
TTTAGTCGTA | 1.01 ± 0.021
TTTAGTGAGG | 0.974 ± 0.03
TTTAGTTTGC | 0.992 ± 0.024
TTTATAAAAC | 1.01 ± 0.051
TTTATAACAG | 0.982 ± 0.021

Sequence | switch fluorescence ratio
TTTATAACGG | 0.988 ± 0.038
TTTATAAGGA | 0.997 ± 0.037
TTTATAAGGC | 0.983 ± 0.061
TTTATAATAG | 0.991 ± 0.025
TTTATAATAT | 1.03 ± 0.015
TTTATACCGT | 1.026 ± 0.0028
TTTATACTGT | 1.03 ± 0.024
TTTATAGGTT | 1.02 ± 0.069
TTTATATGTA | 1.01 ± 0.022
TTTATCAAAA | 0.993 ± 0.012
TTTATCATAA | 0.958 ± 0.017
TTTATCCGGT | 1.01 ± 0.042
TTTATCCGTC | 0.96 ± 0.033
TTTATCGGG | 1.01 ± 0.044
TTTATCGGGC | 0.989 ± 0.019
TTTATCTGCT | 0.981 ± 0.037
TTTATCTTTT | 1 ± 0.028
TTTATGAACT | 1.02 ± 0.042
TTTATGAAGG | 1 ± 0.018
TTTATGAGAG | 1.08 ± 0.092
TTTATGAGTT | 0.988 ± 0.029
TTTATGATGA | 0.971 ± 0.016
TTTATGATGG | 1.01 ± 0.052
TTTATGATTT | 1 ± 0.024
TTTATGCCAG | 0.946 ± 0.053

Sequence | switch fluorescence ratio
TTTATGCTCC | 1.086 ± 0.0031
TTTATGGAAG | 0.988 ± 0.013
TTTATGGACT | 1.03 ± 0.039
TTTATGGCGG | 1.01 ± 0.027
TTTATGGGTA | 1 ± 0.033
TTTATGGTAA | 0.9888 ± 0.0024
TTTATGGTAT | 0.982 ± 0.028
TTTATGGTGT | 1.17 ± 0.21
TTTATGGTTG | 1.02 ± 0.064
TTTATGTGTG | 0.999 ± 0.026
TTTATTAAAA | 0.99 ± 0.038
TTTATTAAGT | 1.01 ± 0.033
TTTATTACCC | 1.02 ± 0.025
TTTATTAGAT | 0.982 ± 0.022
TTTATTCTCT | 1.01 ± 0.019
TTTATTGA | 0.989 ± 0.013
TTTATTGCGT | 1.01 ± 0.048
TTTATTGGT | 1.01 ± 0.018
TTTATTGGTG | 1.03 ± 0.1
TTTATTGTTA | 1.05 ± 0.068
TTTATTGTTT | 1 ± 0.011
TTTATTTACG | 1.033 ± 0.0082
TTTATTTCTG | 0.959 ± 0.02
TTTATTTCTT | 0.98163 ± 0.0001
TTTATTTGAC | 1.03 ± 0.053

Sequence | switch fluorescence ratio
TTTCAAAATT | 0.994 ± 0.018
TTTCAACCTT | 1.42 ± 0.071
TTTCAACGAT | 1 ± 0.029
TTTCAAGGGC | 1.04 ± 0.027
TTTCAAGTGC | 1.03 ± 0.064
TTTCAATCTT | 1.36 ± 0.62
TTTCAATGTC | 0.97 ± 0.11
TTTCACAATC | 1.07 ± 0.076
TTTCACAGTA | 1.03 ± 0.03
TTTCACATGG | 1.052 ± 0.0044
TTTCACTTGT | 1.034 ± 0.0018
TTTCAGGCTT | 1.14 ± 0.13
TTTCAGGGGG | 1.05 ± 0.091
TTTCAGGGTC | 1.15 ± 0.19
TTTCAGTACA | 0.988 ± 0.01
TTTCAGTCGC | 0.9995 ± 0.0047
TTTCAGTTGT | 1.01 ± 0.016
TTTCATAGTC | 1 ± 0.025
TTTCATCGTA | 0.99 ± 0.049
TTTCATGGGG | 1.014 ± 0.0049
TTTCATGTAT | 1.01 ± 0.012
TTTCATGTCT | 0.992 ± 0.019
TTTCATGTGG | 0.995 ± 0.044
TTTCATTTTT | 0.999 ± 0.035
TTTCCACCGA | 1.14 ± 0.16

Sequence | switch fluorescence ratio
TTTCCATCAC | 1 ± 0.042
TTTCCATTCT | 1 ± 0.015
TTTCCCGGAT | 1.1 ± 0.14
TTTCCCGGTG | 2.13 ± 0.039
TTTCCCGTAT | 1.07 ± 0.049
TTTCCGAATG | 1.13 ± 0.026
TTTCCGGGGG | 0.996 ± 0.022
TTTCCGTTTC | 1.06 ± 0.04
TTTCCTGGGC | 1.37 ± 0.61
TTTCCTTTGA | 1.06 ± 0.07
TTTCGAAACT | 1 ± 0.038
TTTCGAACGG | 1.03 ± 0.028
TTTCGAATAA | 0.986 ± 0.0099
TTTCGACTTT | 1 ± 0.038
TTTCGAGGAA | 1.03 ± 0.019
TTTCGAGTTT | 0.983 ± 0.012
TTTCGATATT | 0.989 ± 0.019
TTTCGATTGT | 0.988 ± 0.024
TTTCGCACTG | 1.1 ± 0.018
TTTCGCGGGC | 1.94 ± 0.53
TTTCGCGGTT | 1.02 ± 0.043
TTTCGCGTGG | 0.971 ± 0.028
TTTCGGAGA | 1.11 ± 0.17
TTTCGGATGT | 0.984 ± 0.04
TTTCGGATTT | 0.983 ± 0.012

Sequence | switch fluorescence ratio
TTTCGGCCAG | 1.13 ± 0.17
TTTCGGCTAT | 1.12 ± 0.15
TTTCGGGAAT | 1.08 ± 0.11
TTTCGGGCAT | 1.19 ± 0.31
TTTCGGGGGT | 1.07 ± 0.25
TTTCGGTATT | 1.02 ± 0.02
TTTCGGTCGG | 1.04 ± 0.046
TTTCGGTTGC | 1.07 ± 0.11
TTTCGTATCG | 1.01 ± 0.021
TTTCGTATGG | 1 ± 0.057
TTTCGTGAAA | 0.9975 ± 0.0019
TTTCGTGTGG | 1.01 ± 0.086
TTTCGTGTTG | 1.01 ± 0.017
TTTCGTGTTT | 0.998 ± 0.028
TTTCGTTAAC | 1.06 ± 0.028
TTTCTAGACC | 1.1 ± 0.12
TTTCTAGGGG | 1.01 ± 0.028
TTTCTAGGTT | 1 ± 0.041
TTTCTAGTCG | 0.971 ± 0.019
TTTCTCATTT | 0.972 ± 0.021
TTTCTCGGCT | 1 ± 0.035
TTTCTCGTAC | 1.11 ± 0.012
TTTCTCTGAT | 0.9813 ± 0.0042
TTTCTCTTAG | 0.9889 ± 0.0072
TTTCTGAGCT | 1.08 ± 0.068

Sequence | switch fluorescence ratio
TTTCTGCTTT | 1.04 ± 0.057
TTTCTGGCTA | 1.08 ± 0.053
TTTCTGGGGA | 0.991 ± 0.034
TTTCTGGGGT | 1.01 ± 0.054
TTTCTGGGTG | 1.13 ± 0.038
TTTCTGGTTT | 1 ± 0.016
TTTCTGTAAT | 1.05 ± 0.03
TTTCTGTGCT | 0.97009 ± 7e-05
TTTCTTCAAA | 0.997 ± 0.02
TTTCTTCAGC | 1.21 ± 0.19
TTTCTTGCTG | 1.07 ± 0.047
TTTCTTGGCG | 1 ± 0.03
TTTCTTTTTG | 0.99 ± 0.034
TTTGAAAATA | 0.962 ± 0.018
TTTGAAAGCT | 1.164 ± 0.0067
TTTGAAGTTT | 1 ± 0.018
TTTGAATAGG | 1.01 ± 0.016
TTTGAATCGG | 0.97 ± 0.027
TTTGAATCTT | 1 ± 0.02
TTTGAATGCT | 0.952 ± 0.046
TTTGAATGTA | 1.011 ± 0.0078
TTTGAATTAT | 0.975 ± 0.021
TTTGAATTTC | 0.988 ± 0.021
TTTGACAGCG | 1.02 ± 0.066
TTTGACGACT | 1.01 ± 0.025
